# Data published in patent publication US20250361282A1 (Bayer, published 2025).
# Several values for one entry are separate records, joined by “and”; a condition that tells them apart may be missing. Equal entries are not always repeated.
# T1: human NPRA (human, UniProt P16066 33-1061)
# T1 sequence (looked up): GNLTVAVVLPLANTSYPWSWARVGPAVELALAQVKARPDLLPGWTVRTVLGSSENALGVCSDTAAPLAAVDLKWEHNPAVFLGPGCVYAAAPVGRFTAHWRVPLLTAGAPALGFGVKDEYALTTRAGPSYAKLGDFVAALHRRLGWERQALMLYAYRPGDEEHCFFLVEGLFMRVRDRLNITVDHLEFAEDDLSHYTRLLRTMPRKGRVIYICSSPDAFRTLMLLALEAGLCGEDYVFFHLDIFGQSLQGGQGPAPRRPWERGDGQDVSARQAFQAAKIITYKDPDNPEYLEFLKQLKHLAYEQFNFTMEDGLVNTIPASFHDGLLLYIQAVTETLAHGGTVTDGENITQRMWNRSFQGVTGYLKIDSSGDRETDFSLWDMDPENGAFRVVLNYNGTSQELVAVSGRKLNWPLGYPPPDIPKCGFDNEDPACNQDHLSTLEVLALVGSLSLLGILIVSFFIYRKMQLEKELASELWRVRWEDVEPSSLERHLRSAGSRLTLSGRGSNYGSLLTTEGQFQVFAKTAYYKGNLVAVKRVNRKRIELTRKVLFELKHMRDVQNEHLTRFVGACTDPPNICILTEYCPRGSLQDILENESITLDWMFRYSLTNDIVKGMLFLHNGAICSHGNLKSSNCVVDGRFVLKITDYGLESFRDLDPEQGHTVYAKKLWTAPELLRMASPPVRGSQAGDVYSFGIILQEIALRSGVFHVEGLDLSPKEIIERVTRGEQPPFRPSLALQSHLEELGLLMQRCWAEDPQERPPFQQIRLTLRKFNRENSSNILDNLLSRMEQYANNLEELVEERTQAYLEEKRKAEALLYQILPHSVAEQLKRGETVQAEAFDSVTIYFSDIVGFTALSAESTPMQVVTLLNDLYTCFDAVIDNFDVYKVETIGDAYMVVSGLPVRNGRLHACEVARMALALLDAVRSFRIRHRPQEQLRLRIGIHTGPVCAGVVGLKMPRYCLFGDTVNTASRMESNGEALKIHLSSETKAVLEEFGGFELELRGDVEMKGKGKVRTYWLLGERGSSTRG
# T2: human NPRA (human, UniProt P16066 33-1061)
# T2 sequence (looked up): T1 sequence (looked up)
# B1: TPP-10282 (antibody, human IgG1, lambda)
# heavy: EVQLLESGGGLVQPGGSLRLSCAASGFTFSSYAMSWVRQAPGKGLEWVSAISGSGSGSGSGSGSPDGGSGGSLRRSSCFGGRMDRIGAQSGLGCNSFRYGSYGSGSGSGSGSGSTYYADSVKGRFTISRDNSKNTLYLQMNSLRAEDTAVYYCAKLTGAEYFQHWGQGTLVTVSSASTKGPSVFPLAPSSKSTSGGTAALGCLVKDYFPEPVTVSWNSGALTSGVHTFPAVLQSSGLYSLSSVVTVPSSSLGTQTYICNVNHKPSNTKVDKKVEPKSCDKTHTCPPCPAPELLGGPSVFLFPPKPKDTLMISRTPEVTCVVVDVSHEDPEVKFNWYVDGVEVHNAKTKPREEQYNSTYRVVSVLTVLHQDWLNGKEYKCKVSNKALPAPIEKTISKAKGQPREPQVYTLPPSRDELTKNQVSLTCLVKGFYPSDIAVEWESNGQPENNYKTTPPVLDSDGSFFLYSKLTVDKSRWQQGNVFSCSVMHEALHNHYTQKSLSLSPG
# light: QSVLTQPPSVSGAPGQRVTISCTGSSSNIGAGYDVHWYQQLPGTAPKLLIYGNSNRPSGVPDRFSGSKSGTSASLAITGLQAEDEADYYCQSYDSSLSGVVFGGGTKLTVLGQPKAAPSVTLFPPSSEELQANKATLVCLISDFYPGAVTVAWKADSSPVKAGVETTTPSKQSNNKYAASSYLSLTPEQWKSHRSYSCQVTHEGSTVEKTVAPTECS
# B2: TPP-10283 (antibody, human IgG1, lambda)
# heavy: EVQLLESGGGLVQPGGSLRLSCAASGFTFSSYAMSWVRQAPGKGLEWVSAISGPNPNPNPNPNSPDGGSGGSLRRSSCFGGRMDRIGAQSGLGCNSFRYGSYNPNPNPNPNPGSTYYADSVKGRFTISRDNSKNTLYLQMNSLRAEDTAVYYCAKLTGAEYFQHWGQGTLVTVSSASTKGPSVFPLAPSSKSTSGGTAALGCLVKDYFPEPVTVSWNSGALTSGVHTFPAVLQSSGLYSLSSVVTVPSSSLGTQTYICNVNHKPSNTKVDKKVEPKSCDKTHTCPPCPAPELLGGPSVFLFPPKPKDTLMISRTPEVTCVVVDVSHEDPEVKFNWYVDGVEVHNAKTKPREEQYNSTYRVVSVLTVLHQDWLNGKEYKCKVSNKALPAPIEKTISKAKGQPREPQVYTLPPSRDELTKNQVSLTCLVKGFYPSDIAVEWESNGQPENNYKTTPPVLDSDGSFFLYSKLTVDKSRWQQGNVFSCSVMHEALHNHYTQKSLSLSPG
# light: B1 light
# B3: TPP-10274 (antibody)
# heavy: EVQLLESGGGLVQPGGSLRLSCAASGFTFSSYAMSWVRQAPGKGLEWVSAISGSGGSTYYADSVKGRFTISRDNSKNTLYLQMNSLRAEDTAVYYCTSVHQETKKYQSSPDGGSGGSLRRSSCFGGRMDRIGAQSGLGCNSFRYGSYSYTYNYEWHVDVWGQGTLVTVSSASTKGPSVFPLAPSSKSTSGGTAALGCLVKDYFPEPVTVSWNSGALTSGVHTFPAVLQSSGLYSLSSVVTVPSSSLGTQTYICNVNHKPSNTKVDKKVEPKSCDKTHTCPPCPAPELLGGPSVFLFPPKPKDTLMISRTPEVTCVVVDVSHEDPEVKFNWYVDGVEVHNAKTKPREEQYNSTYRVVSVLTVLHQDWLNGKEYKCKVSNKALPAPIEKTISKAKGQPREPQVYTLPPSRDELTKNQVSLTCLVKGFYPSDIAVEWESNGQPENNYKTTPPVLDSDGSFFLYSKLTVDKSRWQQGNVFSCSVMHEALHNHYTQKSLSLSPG
# light: B1 light
# B4: TPP-5661 (antibody)
# heavy: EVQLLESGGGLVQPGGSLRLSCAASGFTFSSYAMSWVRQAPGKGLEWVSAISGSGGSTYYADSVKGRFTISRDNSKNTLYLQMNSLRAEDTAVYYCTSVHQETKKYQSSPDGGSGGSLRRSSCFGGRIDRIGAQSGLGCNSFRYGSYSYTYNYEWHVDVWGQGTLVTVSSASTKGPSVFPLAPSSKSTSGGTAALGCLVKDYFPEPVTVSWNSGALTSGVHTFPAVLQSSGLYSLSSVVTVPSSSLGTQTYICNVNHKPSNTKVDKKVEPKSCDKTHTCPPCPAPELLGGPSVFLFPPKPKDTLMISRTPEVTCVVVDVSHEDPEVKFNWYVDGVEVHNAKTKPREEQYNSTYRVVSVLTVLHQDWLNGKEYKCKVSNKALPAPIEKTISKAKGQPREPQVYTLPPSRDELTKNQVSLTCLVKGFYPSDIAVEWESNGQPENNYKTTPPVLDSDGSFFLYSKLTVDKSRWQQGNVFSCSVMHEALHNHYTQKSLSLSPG
# light: B1 light
# B5: TPP-13230 (antibody)
# heavy: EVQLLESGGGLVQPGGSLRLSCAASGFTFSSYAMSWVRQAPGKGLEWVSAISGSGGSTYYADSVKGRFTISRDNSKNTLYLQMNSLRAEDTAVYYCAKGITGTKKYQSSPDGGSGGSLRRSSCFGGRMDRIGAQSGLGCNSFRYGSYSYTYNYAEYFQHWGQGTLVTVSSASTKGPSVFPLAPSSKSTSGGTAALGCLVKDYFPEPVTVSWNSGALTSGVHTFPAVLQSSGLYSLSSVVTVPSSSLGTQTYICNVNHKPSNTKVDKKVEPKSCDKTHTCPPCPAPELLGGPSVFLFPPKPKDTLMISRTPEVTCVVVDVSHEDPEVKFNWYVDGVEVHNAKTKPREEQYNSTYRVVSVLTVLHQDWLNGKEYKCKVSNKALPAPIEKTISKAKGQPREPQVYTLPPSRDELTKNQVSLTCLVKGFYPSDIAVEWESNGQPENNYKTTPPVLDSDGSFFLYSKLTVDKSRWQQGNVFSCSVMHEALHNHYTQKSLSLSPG
# light: B1 light
# B6: TPP-10290 (antibody)
# heavy: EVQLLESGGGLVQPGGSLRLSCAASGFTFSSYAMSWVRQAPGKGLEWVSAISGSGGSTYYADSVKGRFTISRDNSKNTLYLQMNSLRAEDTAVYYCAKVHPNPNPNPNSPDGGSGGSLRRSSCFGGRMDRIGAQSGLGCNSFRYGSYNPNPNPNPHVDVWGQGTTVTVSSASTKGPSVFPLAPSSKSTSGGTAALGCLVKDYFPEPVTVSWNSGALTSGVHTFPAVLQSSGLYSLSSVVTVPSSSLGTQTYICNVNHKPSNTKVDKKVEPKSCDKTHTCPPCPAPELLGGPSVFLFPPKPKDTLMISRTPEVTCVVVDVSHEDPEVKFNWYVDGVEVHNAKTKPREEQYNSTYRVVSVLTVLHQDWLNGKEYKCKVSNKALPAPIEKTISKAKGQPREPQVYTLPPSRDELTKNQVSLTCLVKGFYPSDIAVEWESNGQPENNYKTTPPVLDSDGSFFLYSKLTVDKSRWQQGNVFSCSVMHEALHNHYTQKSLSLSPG
# light: B1 light
# B7: TPP-10361 (antibody, human IgG1, lambda)
# heavy: not shown
# light: QSVLTQPPSVSGAPGQRVTISCTGSSSNIGAGYDVHWYQQLPGTAPKLLIYGSGSGSGSGSGSPDGGSGGSLRRSSCFGGRMDRIGAQSGLGCNSFRYGSYGSGGSGSGSGNRPSGVPDRFSGSKSGTSASLAITGLQAEDEADYYCQSYDSSLSGVVFGGGTKLTVLGQPKAAPSVTLFPPSSEELQANKATLVCLISDFYPGAVTVAWKADSSPVKAGVETTTPSKQSNNKYAASSYLSLTPEQWKSHRSYSCQVTHEGSTVEKTVAPTECS
# B8: TPP-10355 (antibody, human IgG1, lambda)
# heavy: not shown
# light: QSVLTQPPSVSGAPGQRVTISCTGSSSNIGAGYDVHWYQQLPGTAPKLLIYGNSNRPSGVPDRFSGSKSGTSASLAITGLQAEDEADYYCAAWNPNPNPNPNPNGGSGGSLRRSSCFGGRMDRIGAQSGLGCNSFRYGSNPNPNPNPNPNVFGSGTKVTVLGQPKAAPSVTLFPPSSEELQANKATLVCLISDFYPGAVTVAWKADSSPVKAGVETTTPSKQSNNKYAASSYLSLTPEQWKSHRSYSCQVTHEGSTVEKTVAPTECS
# B9: TPP-13054 (antibody, human IgG1, lambda)
# heavy: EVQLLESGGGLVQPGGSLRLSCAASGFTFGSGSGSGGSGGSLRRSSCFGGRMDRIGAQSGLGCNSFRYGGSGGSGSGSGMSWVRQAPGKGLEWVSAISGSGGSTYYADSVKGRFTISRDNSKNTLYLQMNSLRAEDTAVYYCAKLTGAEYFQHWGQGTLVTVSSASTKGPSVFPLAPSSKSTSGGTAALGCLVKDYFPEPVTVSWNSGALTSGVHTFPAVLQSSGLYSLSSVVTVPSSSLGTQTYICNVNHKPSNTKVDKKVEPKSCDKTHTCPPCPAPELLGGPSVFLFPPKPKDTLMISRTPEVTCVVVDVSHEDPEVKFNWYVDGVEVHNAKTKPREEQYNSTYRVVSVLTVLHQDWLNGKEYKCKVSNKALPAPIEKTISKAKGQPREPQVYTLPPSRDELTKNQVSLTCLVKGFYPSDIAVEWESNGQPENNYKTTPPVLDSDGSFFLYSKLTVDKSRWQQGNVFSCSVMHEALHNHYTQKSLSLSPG
# light: B1 light
# Tests used:
# [1] = target: T1, human NPRA; test: cell-based or functional assay
# [2] = target: T2, human NPRA; test: cell-based or functional assay; remark: listed apart in the source
Binder,"activity rcs (cGMP, hNPRA-CHO k1) [1] [%]",average rel logEC50 (vs TPP-5661) [1],activity rcs [2] [%],average rel logEC50 [2] [delta logEC50 vs TPP-5661],rel. activity rcs [2] [delta logEC50 vs TPP-5661],rel. logEC50 pcs 2 [2] [delta logEC50 vs TPP-5661],rel. logEC50 pcs 3 [2] [delta logEC50 vs TPP-5661],also measured
B1,30,0.1,,,,,,"rel. activity rcs (delta logEC50 vs TPP-5661, hNPRA-CHO k1) [1]: 0.3; rel. logEC50 pcs 1 (vs TPP-5661, hNPRA-CHO k1) [1]: 0.3; rel. logEC50 pcs 2 (vs TPP-5661, hNPRA-CHO k1) [1]: -0.2; rel. logEC50 pcs 4 (vs TPP-5661, hNPRA-CHO k1) [1]: 0.1; rel. logEC50 pcs 5 (vs TPP-5661, hNPRA-CHO k1) [1]: 0.2"
B2,83,-0.8,,,,,,"rel. activity rcs (delta logEC50 vs TPP-5661, hNPRA-CHO k1) [1]: -0.8; rel. logEC50 pcs 5 (vs TPP-5661, hNPRA-CHO k1) [1]: -0.8"
B3,71,-0.1,,,,,,"rel. logEC50 pcs 2 (vs TPP-5661, hNPRA-CHO k1) [1]: -0.3; rel. logEC50 pcs 3 (vs TPP-5661, hNPRA-CHO k1) [1]: -0.2; rel. logEC50 pcs 7 (vs TPP-5661, hNPRA-CHO k1) [1]: 0"
B4,,,36,0,0,0,0,rel. logEC50* pcs [2]: 0 delta logEC50 vs TPP-5661; rel. logEC50 ics [2]: 0 delta logEC50 vs TPP-5661; rel. logEC50 pcs 1 [2]: 0 delta logEC50 vs TPP-5661; rel. logEC50 pcs 4 [2]: 0 delta logEC50 vs TPP-5661; rel. logEC50 pcs 5 [2]: 0 delta logEC50 vs TPP-5661; rel. logEC50 pcs 6 [2]: 0 delta logEC50 vs TPP-5661; rel. logEC50 pcs 7 [2]: 0 delta logEC50 vs TPP-5661; rel. logEC50 pcs 8 [2]: 0 delta logEC50 vs TPP-5661; rel. logEC50 pcs 9 [2]: 0 delta logEC50 vs TPP-5661
B5,,,,-0.3,,,,rel. logEC50 pcs 9 [2]: -0.3 delta logEC50 vs TPP-5661
B6,,,84,-0.5,,-0.8,-0.1,
B7,,,20,-0.1,-0.1,,,rel. logEC50 pcs 5 [2]: -0.1 delta logEC50 vs TPP-5661
B8,,,94,-0.2,0.1,-0.6,0.2,rel. logEC50 pcs 4 [2]: -0.3 delta logEC50 vs TPP-5661
B9,,-0.8,,,,,,"rel. logEC50* pcs (vs TPP-5661, hNPRA-HEK293) [1]: -0.7 and -0.8"
